The values below come from publication PMC3299805 (Immunity, 2012).

Read-outs that look alike come from different tables or passages of the source.

Experiment [1] deals with T1, JAK2 catalytic domain, JAK2JH1 (UniProt O60674 840-1128). The experiment is described as follows: cell-based or functional assay.
In experiment [2] the target is T1, JAK2 catalytic domain, JAK2JH1. As to the kind of experiment: steady-state enzyme kinetics.
Experiment [3] has the same target. As to the kind of experiment: steady-state enzyme kinetics. This is another data set of the same source.

T1 sequence (O60674 840-1128): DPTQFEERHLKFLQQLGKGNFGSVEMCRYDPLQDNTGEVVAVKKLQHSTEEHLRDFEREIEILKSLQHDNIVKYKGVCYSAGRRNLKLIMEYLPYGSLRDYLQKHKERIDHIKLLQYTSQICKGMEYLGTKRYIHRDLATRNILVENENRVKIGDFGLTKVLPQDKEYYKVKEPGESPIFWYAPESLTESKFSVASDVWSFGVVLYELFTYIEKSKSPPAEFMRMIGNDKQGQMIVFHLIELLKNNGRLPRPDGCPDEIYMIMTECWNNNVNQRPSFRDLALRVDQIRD

B1: SOCS3_(22–225)ΔPEST in complex with elongins B and C (complex)
chain 1: LKTFSSKSEYQLVVNAVRKLQESGFYWSAVTGGEANLLLSAEPAGTFLIRDSSDQRHFFTLSVKTQSGTKNLRIQCEGGSFSLQSDPRSTQPVPRFDCVLKLVHHYMGSGSGSGSAYYIYSGGEKIPLVLSRPLSSNVATLQHLCRKTVNGHLDSYEKVTQLPGPIREFLDQYDAPL
chain 2: MDVFLMIRRHKTTIFTDAKESSTVFELKRIVEGILKRPPDEQRLYKDDQLLDDGKTLGECGFTSQTARPQAPATVGLAFRADDTFEALCIEPFSSPPELPDVMKPQDSGSSANEQAVQ
chain 3: MYVKLISSDGHEFIVKREHALTSGTIKAMLSGPGQFAENETNEVNFREIPSHVLSKVCMYFTYKVRYTNSSTEIPEFPIAPEIALELLMAANFLDC
In the case of B1, the “IC50 of inhibition of the kinase domain's activity (Figure 2A)” value in experiment [1] is 1500 nM. For the same molecule, the Ki came out at 1200 ± 300 nM in experiment [2] and 1500 ± 700 nM in experiment [3].
